Data published in publication PMC9166750 (Scientific Reports, 2022).

How the values were obtained:
[1] = molecular target: syntaxin-1a cytoplasmic domain (residues 1–265) with C-terminal Avi-tag (UniProt P32851); experiment: pull-down; syntaxins biotinylated at the N-terminal amino group on neutravidin agarose beads; about 300 μg Munc18-1 incubated 1 h, washed, then 500 μg SNAP-25A 1 h at room temperature, washed with TBS; SDS-PAGE, Coomassie, Munc18-1 and SNAP-25 bands normalised to the syntaxin bands (ImageJ)
[2] = molecular target: syntaxin-1a cytoplasmic domain (residues 1–265) with C-terminal Avi-tag (UniProt P32851); experiment: fluorescence polarisation; ensemble fluorescence anisotropy of syntaxins with Munc18 (Supplemental Fig. 3); estimated Kd; conditions of this titration not told
[3] = molecular target: syntaxin-3b (residues 1–264)-Avi, T14E, double-cysteine construct labelled with FRET dyes (mouse) (UniProt Q64704); experiment: FRET or BRET; single-molecule FRET within syntaxin-3b (donor and acceptor on two cysteines), tethered by C-terminal biotin to streptavidin on a PEG surface; 10 μM SNAP-25 and synaptobrevin-2 (1-96) in solution; low FRET (open) read as SNARE complex
[4] = molecular target: syntaxin-3b (residues 1–264)-Avi, wild type, double-cysteine construct labelled with FRET dyes (mouse) (UniProt Q64704); experiment: as above
[5] = molecular target: syntaxin-1a cytoplasmic domain (residues 1–265) with C-terminal Avi-tag (UniProt P32851); experiment: fluorescence polarisation; bulk fluorescence anisotropy; Alexa 488-labelled syntaxin about 0.5 μM in TBS (20 mM Tris pH 7.5, 150 mM NaCl, 0.5 mM TCEP), unlabelled SNAP-25A 0-0.900 μM, about 15 min at room temperature, 96 well plate; curves fit with Hill equations to estimate Kd
Munc18-1 = molecular target: T1, Munc18-1 (UniProt P61765 1-594); experiment: fluorescence polarisation; ensemble fluorescence anisotropy of syntaxins with Munc18 (Supplemental Fig. 3); estimated Kd; conditions of this titration not told; settings: both partners purified
T1 construct: The methods describe no plasmid for Munc18-1; only its tag cleavage and gel filtration are told; source: E. coli BL21 (DE3*), purified (Ni-NTA, TEV cleavage, Superdex 200 gel filtration)

Chain of synaptobrevin-2 cytoplasmic domain (residues 1–96) (P63045 1-96): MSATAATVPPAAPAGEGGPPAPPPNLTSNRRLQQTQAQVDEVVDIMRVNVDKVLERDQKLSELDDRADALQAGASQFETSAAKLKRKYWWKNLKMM

| fold increase of SNARE complex formation against WT syntaxin-3b [3] | percent of molecules that formed ternary SNARE complex [4] | Molecule | also measured |
| --- | --- | --- | --- |
| – | – | Munc18-1 (from UniProt P61765 1-594) (natural protein) | percent decrease of binary t-SNARE complex formation with SNAP-25 in the presence of Munc18-1 [1]: 70%; Kd [2]: 6.6 nM |
| 2 fold | 50% | SNAP-25, full length (from UniProt P60881-2 1-206) (natural protein) | Kd [5]: 161 nM |
| 2 fold | 50% | synaptobrevin-2 cytoplasmic domain (residues 1–96) (from UniProt P63045 1-96) (domain or fragment) | – |
| – | – | syntaxin-3b cytoplasmic domain (residues 1–264) with C-terminal Avi-tag, wild type (domain or fragment, mouse, UniProt Q64704-2 1-264, looked up, Alexa 488 (NHS ester) at the N-terminal primary amino group in the anisotropy assays; biotin (NHS-biotin) at the N-terminal primary amino group in the pull-downs, syntaxin-3b (splice isoform 3b of syntaxin-3), cytoplasmic domain, residues 1-264; Gene synthesized and inserted into pJ414 (ATUM); The two native cysteines lie in the transmembrane region, which the Avi-tag replaces; also called SX-3b; WT syntaxin-3b; source: E. coli BL21 (DE3*), purified (Ni-NTA, TEV cleavage, HiTrap Q); not shown: His6, N-terminal, cleaved) MKDRLEQLKAKQLTQDDDTDEVEIAIDNTAFMDEFFSEIEETRLNIDKISEHVEEAKKLYSIILSAPIPEPKTKDDLEQLTTEIKKRANNVRNKLKSMEKHIEEDEVRSSADLRIRKSQHSVLSRKFVEVMTKYNEAQVDFRERSKGRIQRQLEITGKKTTDEELEEMLESGNPAIFTSGIIDSQISKQALSEIEGRHKDIVRLESSIKELHDMFMDIAMLVENQGAMIDRIENNMDQSVGFVERAVADTKKAVKYQSEARRKK | Kd (Munc18-1): 9.6 nM |
